From article PMC11653366 (2024) come the findings set out here.

T1: F*-PLLP
T1 chain: LASRPLPLLP

B1: AblSrc SH3 SH3 (protein)
chain: PSENDPNLFVALYDFESRTETTLSITKGEKLRVLGYNTEGDWCEAQTKNGQGWVPSNYITPVNSLEK
B2: SrcAbl SH3 84-145 (protein)
chain: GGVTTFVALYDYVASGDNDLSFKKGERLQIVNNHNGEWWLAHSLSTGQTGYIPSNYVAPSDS
B3: F*-p40 (peptide)
chain: APTYSPPPPP

Test in all cases: fluorescence anisotropy
In the assay “F*-p40” the target is B3.
Another assay addresses T1, F*-PLLP.
The target of the next assay is Src SH3 84-145 (Homo sapiens, UniProt P12931).

Usually Kd stands for a measure of binding affinity in units of concentration. Lower therefore signals a tighter complex.

Some results are limits rather than exact numbers.

B1: the Kd with F*-p40 was 210 µM; in the assay with F*-PLLP, above 1000 µM.
In the case of B2, the figures for the equilibrium dissociation constant (Kd) in the assay with F*-p40 and with F*-PLLP were 130 µM and 140 µM, respectively.
In turn, B3 showed a Kd with Src SH3 84-145 above 1000 µM.
